Data reported in article doi:10.1101/625327.

Key:
Assay in all cases: SPR
M/N120 = M/N120 (UniProt Q9UBB5)
M/N60 = M/N60 (UniProt Q9UBB5)
M/N20 = M/N20 (UniProt Q9UBB5)

Measured: Kd

P15 (from UniProt Q86YP4 137-178) (domain or fragment)
3 nM: M/N120 | M/N60 | M/N20
